Assay: protease stability score; higher = more stable; yeast display proteolysis, trypsin and chymotrypsin;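 note: relative to predicted unfolded state with 0 unfolded-like and 1 meaning tenfold more protease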

## SEEEKHIIELFEIWLEAIRTGDENLLLKLADPHYRVIIDVGNKHIHRHGWKEFMEWLRHFTREMRIRHLTLRDYRAVNGVFHADTESVEEIGEFELRTRMHIVLVIINGVFHSVRHKIE
  protease stability score: 1.23

## SEEEKHLEHMARMMVEALMTGDEKLLNHLLDPNVRVEHSINGVEITDHGWHLYVKWVRDLGIDHIYFKDMHHQGNKTHLNIEIEINGKHIETRLLLVIVNGRIHIIKHEIK
  protease stability score: 2.08

## SEEEKHLRELSEHFIKLFLTGNEEELVNNADPHVQLHIDINGKKYHYHGREEFRKWAEERSEKIKNAKIILDHVEIQGEKLIIDTTWHFDGRNFRSKIKIKVFDGVLKEIHIEIR
  protease stability score: 2.1

## SEEEKHMHKMHELRNKRTKTGDEHWFEKLADPHYRVEIGDKELIGWEYLVRVRREFGIDHLETVHIDSTEIQGEKVIEHVTIHGEFDGVRNDLKVELIVIKFNGRWVMHSTKVK
  protease stability score: 0.761

## SEEEKHSHKAVEIITELLKTGDWHEILKNADPTTKSDFNGVELHGWEALQSILKFMGIDHVELKSIDVFNGRLTVHRNMHINGREHHLIIIALKVNGKWVLESMEVH
  protease stability score: 1.84

## SEEEKHTREMSEMLLRTWETGDEEEYEHLADPHVRIDFNGKHYHGREEAVKLLRWLIEELGADHRTIHREEVQGEKVRLFTRVNVNGRDLRLIIRFVVINGRLTIMKIEIHTE
  protease stability score: 1.26

## SEEEKHVHRFLSEWTRSLKTGDEQRIVRLLDPTARLFFEGREYHGMETIAHQIVHDIRHHGFTLEVEIQDFHVQGDKAEHDGILIVKVDGKEIHRKLILVVTKIDGRWFLSEVIIK
  protease stability score: 0.923

## SEEEKHVIKMAEILLKSVLTGDWDKIKKMLDPNVKFHFHAENRHEEDHGMERVMDWMIKVRERFDVLEIEVTNSDVYGDKAVVDGRLINIIGDKRIETRVIIIIVVVDGRIHSIYFVIK
  protease stability score: 2.54

## SEEEKHVTSMMELWIHYIITGDEEFFLKLADPHTRFEIGDYENHGRDAVKWHRDHLGLDNVHSRIHIKELRAVGDKVHSHTHLVIHIGDKTIRMDTKVHIVYINGRITSIIVEIS
  protease stability score: 1.31

## SEEEKHWEDLVEHLHQIWLTGDEDTLRHRLDPNMRMDIDGKELHGRESIIEEIRRLGVDHVETKRKHSQGDKAHFDLIIRIDGKEHKMEIVIVVVNGKLKEVVLRRK
  protease stability score: 1.1

## SEEEKHWRKVINLLRRWHLTGDEHNLLELFDPNYRLHQGDKEIHGMELYIEIFERELKKVPNLKINFDSKHIEVQGEKARAETELDVNIDGRRIEFETRLYSIKFNGKWFVHSMEVK
  protease stability score: 0.553

## SEEEKIAEDLAREIEEDWLTGNEEYIMHLADPNVKSHINIDGKRIDTHGMEELTHWLSRYPNVRIEPKRMDVQGEKITLDFELNIGDKRVRVILYHIIINGRIKEIRIIIHHV
  protease stability score: 0.995

## SEEEKIFEMAIKLMRHTLQTGDESTLHRLLDPHVRVVIGDKTYVGREATEFLLTRIDHIHDVEIHEVELINGRVNMHGIVDGTIGDKRVHVESNWVASKYDGRWHLKSISFH
  protease stability score: 1.29

## SEEEKILDDILKLFLDDVRTGNEDSLHRLADPHVRQDYNGVELHGMELVVHWLVELRVEDWRHKDSDSAENRVHLNGIVDGNINGKKQRREIILVIRKVDGRWFLEHNIVI
  protease stability score: 1.23

## SEEEKILDKLMELLSRLVHTGDEKEWADLMDPDTKLHVGDKTYIGMEKVTEFLHEMRVHHLELHDKRVIGDKARVHTNLRGVIDGRDVNLETHMIITKINGKWVIHSVEVR
  protease stability score: 1.02

## SEEEKILEDALRLLIEVDETGNWKLLQEMIDPNVLVDINGRKYHGREQWIRLLHEFIRDAGVQRIHSDIEHIEIQGEKIIMHGMLDINGQRRRTEVIAHKYDGRWFVEEIRIR
  protease stability score: 2.11

## SEEEKILKEIAHLLIRSLITGDWKILRDLMDPHTKIHILQGDKVHNFHGWKAMTETLKQKLDRIDHVNFELRHMEVFDGRVHIEGVLHLNFDGQERFTEVRIIVVVIDGKLKEFELRIH
  protease stability score: 2.16

## SEEEKIMEELLRRIVNALQTGDEDFWSHLADPDTRFVLIQGEWSDEVHGRENALKFMEELKKRVPGMRIRVKDSRVQGEKLHVDGEIIYNGRSFDVEIRLRVVDGRIHEFQIIIR
  protease stability score: 2.06

## SEEEKIVDERIKILLESWDTGDWDSFIKMLDPNALSIVGEFVMHGRETVVDALDKLLKKLGVKMETHDTEHFEIYGNKARLETTIHLRVGDFHFKRRTRVHMEKVDGQWFITIYESG
  protease stability score: 1.31

## SEEEKKDHRQWERTFKAFLTGDEDTVHNLADPHVKTEVGDKEYHGRENFSKLISDLGVDHLNLKEIDTVNGRIHLLSEVRFNGQITKFIIIILKVNGQWHVESMEFH
  protease stability score: 0.441

## SEEEKKLNHWLELWLRSVVTGDEEHLERLADPHVRNHVGDFESHGREEVLKLMEMLKRTLGAKHIRIEIHHVDVQGDKVRMDTRIIIDAENHHLTLKSRMHTRKIDGRWYLHSLEID
  protease stability score: 1.06

## SEEEKKSKDALRFLEEVWKTGDWDDFRKMIDPHVRIEVNGRTYHGMEDAEKFARDLLKRVKNMKVSIRHIETQGDKMIVHGELNIDGVHSEIQIFTDKIDGRWLLKEVNFI
  protease stability score: 0.498

## SEEEKLAHEYVRHIIELLETGDEQNVQDLMDPNARSVMIIDGREIYTHGRDAFSHLLKLMGFDHSRLKDIKIYDGRVHSHIEVSVNGREVEVHLIVRKVDGRWVLQETRFHLH
  protease stability score: 1.19

## SEEEKLFKIMMKLLLEQTETGDEHFLKHQFDPHARLEIGEFDLHGWEFMDEHVRHWRYRDMELRRLEFQGNKIETRGLIIGEYNGRRLEISVRMIVLKIDGKWIIKHVHIH
  protease stability score: 1.42

## SEEEKLLEELAKMFIELWLTGNEEHLMHLADPNVRFRQGDKRSHGRENLKRLLHELHEEIRIHDIRMKDVRFVNGRSIFDGHLIVQVNGVEIRLDAELTIISVNGKIKEIEIRHR
  protease stability score: 1.08

Source: the NTF2 design screens of Basanta et al. (2020)
